Experimental data: patent publication US7427671 (US Dept. of Health and Human Services, dated 2008)

Target: T1, human type α platelet derived growth factor receptor (T11 gene product) (human, UniProt P16234 24-1089)
T1 construct: In western blots and immunoprecipitations it came from cell lysates; also called type α PDGF-R; α PDGFR
Test: Scatchard analysis of PDGF-BB binding to 32D-αR transfectants

T1 sequence (P16234 24-1089): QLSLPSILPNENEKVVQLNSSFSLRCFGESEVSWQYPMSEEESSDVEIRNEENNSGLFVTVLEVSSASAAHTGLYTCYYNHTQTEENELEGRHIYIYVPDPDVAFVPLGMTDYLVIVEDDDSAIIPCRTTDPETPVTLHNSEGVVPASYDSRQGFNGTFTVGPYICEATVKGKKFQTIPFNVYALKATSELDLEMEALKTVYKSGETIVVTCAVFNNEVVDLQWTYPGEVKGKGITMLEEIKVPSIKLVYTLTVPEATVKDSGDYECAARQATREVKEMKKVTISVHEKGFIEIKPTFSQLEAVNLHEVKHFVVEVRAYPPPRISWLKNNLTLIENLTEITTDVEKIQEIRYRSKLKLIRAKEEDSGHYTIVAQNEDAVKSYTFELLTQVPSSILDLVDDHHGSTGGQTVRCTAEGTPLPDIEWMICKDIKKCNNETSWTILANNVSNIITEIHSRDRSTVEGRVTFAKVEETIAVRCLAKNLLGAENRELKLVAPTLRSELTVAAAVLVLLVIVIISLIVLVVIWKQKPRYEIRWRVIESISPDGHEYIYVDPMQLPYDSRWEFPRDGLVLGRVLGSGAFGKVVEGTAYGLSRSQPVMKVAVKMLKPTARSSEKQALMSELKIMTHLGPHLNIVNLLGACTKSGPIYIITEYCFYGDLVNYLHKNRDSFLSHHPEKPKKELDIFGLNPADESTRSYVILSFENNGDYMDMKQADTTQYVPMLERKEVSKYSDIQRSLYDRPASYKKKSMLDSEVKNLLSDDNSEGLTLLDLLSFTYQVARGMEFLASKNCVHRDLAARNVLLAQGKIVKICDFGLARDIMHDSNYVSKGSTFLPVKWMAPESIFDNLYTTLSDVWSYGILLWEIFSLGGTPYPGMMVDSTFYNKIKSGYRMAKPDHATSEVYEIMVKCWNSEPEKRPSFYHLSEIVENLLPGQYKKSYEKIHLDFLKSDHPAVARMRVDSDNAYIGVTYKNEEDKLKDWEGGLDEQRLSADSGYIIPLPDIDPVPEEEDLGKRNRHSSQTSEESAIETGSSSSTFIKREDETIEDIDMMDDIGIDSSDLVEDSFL

B1: recombinant PDGF-BB (ligand, UniProt P01127 82-190, looked up)
chain: SLGSLTIAEPAMIAECKTRTEVFEISRRLIDRTNANFLVWPPCVEVQRCSGCCNNRNVQCRPTQVQLRPVQVRKIEIVRKKPIFKKATVTLEDHLACKCETVAAARPVT
notes: Homodimer of B chains; also called BB homodimer
  Kd: 400 pM
